This series is described as follows: soluble on expression in E. coli; label from the status in PepcDB or PDB records.
For “MIIQCQVKSVQPLATHTYQILLQPEHAVAYQAGQYLMVVMGEKDKRPFSLASSPCRSNGELELHIGAADHSAFAHQVVEKFQQAHLNQTWVEVDVPHGNAALQESERPLLLIAGGTGFSYVRSILDHCLSQGKTQPIYLYWGARDAAQLYALNELQELAKQHAHLQVVPVVEQAQDDWAGKVGNVLQAINNDFASLEAFDIYIAGRFEMAGAAREQFTQNKQARRDRMFADAYAFI”, the “soluble on expression in E. coli” value is on record as “not soluble”.
As for “GPGSMQSNAPFDPEREALRNEAIKKTVERNVTQARLKKVNDDVKLQQRELDKVEDQVNALLSIGHYVGEVLKRVDEERFIVKSISGARHLVGYRKSIKPEKLKFGARVALEITTFTIVKVLPREVDPQVYSMQYMSSDKDVSFQDIGGLQPQMRQMREVIELPLTNPELFVRVGIAPPKGVLLYGPPGTGKTLLAKAIAANVDAAFLKIVASSIVDKYIGESARVIREMFAYAREHEPCIIFIDEVDAIGSKRIEGSSSDREIQRTLMELLNQMDGFDKLGKVKVIMATNRPDTLDAALMRPGRLDRKIEIPLPNEAGRLDVLRIHSAKITKKGDIDFESVVKLSEGFNGADLRNVCTEAGMFAIRAGRDYVENSDFNKAVRKVADMKRLEGTAHQYSDQ”, the entry is “not soluble”.
The same measure for “MANEANPCPCDIGHKLEYGGMGHEVQVEHIKAYVTRSPVDAGKAVIVVQDIFGWQLPNTRYMADMIARNGYTTIVPDFFVGQEPWDPAGDWSTFPAWLKSRNARKVNREVDAVLRYLRQQCHAQKIGIVGFCWGGVVVHQVMTAYPDIRAGVSVYGIIRDSEDVYNLKNPTLFIFAENDTVIPLEQVSTLTQKLKEHCIVNYQVKTFSGQTHGFVHRKREDCSPADKPYIEEARRNLIEWLNKYV”: “not soluble”; for “MPQGRGDGGVRMAAISLTKVRETAPALVDLYKTAGVSLTKHGMAGTRAAVYLVVDYSGSMKPYYKDGSVQALADRVLSLSAHLDDDGIVPVVFFSTDVDAVTEIALADHQGRIERIVAGLGHMGKTSYHLAMDAVIDHYLDSGARHPALVVFQTDGGPINRLAAERYLCKAAPLPLFWQFVGFGDPDSRQFEYLRKLDELAVPGKRVIDNAGFFHAGRDPRKVTDAELYDRLVGEFPQWLAAARAQGIARPSLEHHHHHH”: “not soluble”.
The same measure for “MSLKNDVSPLEIKVIDENSEQYGISKETLMENAGRAVYEEIVNLNVDFSKTYLFCGTGNNGGDGFVIARHLANNFATFVVLIGNERKIKTSETQRNFNTVKNMEFFGNLDYANILDDERAVELLKTIEKELENKQNDHILIIDAMLGTGITGILKNPYSTIVDYLNVLKSKYSKKLKMVSVDIQTGNLNADLEVILHKRKFENKNKNFVVKDIGIPKYIENMVGKGDFYLLNERKQNSHKGQNGNVLVIGGSKEYHGAPVFSALAASKFADIVTVASVSNVMNTVSNYPELMPYELTGDYIVQNHVDELLELSKNYDCVVLGSGISVNSDTKEFVNSYLNETNGKVVIDADAIKLIDYSNFKFKNNFIFTPHKKEFEYIENYIESSGFKSTVVLKGSLDIIFNSNNIKMNITGNQGMTVGGTGDILCGIIGAIYACNDAFPSACCGTYINGYCGDLLEKEYGYYYNSTDIIKILPKALKELLYEGHHHHHH”: “soluble”; for “MEEVINYRSDLFRLSDNLETLHIEEKFGIKCDLTCKIEENMTTFEFQFDLRDFKNNGFKQLTAEITIRPDPENPIFELIHRKLDILDIDEHRVNFSVENKNTQSLAETRAILELILTPIREKFSYREMFMPSQKTDAILMIGGEKLHVNKAFLSFHSDFFHELFSASSTESEIPEIPIRDVSAEDMGLLLSTIYPDLVFPTDKTAAKLLTLANRFQMRAVTAQVEHHLLWHSDIEIEKLILMANTFGMKDLLKECTCDGGNKTPGEVPISVQ”: “not soluble”.
In the case of “MEISNVYVPPRSSSSNHARLMTDFSNIFQTKSKSIISGDVNAHHSAWHSEGSEDTRGRELAELIDLHPDLIIQNEQVHTRADTYSISSPDITICTADLATKCHWSTLYKLGSDHIPMKLKINQAATPKRPKRLVANFKKANWQLFRDHIESRINGYSGPMDAIPMEKFFNKVILEADKKAVPKGSIDPKLKVDPKPLRLLAKEIADRETRNPLDPEIPILTRELATKRAERKNSEWRKKAHDQNAKRKSDVSSFWKLIKGVTKGRQYKGPVAFGDGLPKTGATIANKMAKSLVEAGRTKISHDEELKWRKNVRRNKRISKIAPLQDRITSIELHNMAIKMSPSAAIGPDGIAQIHIRKLPMCGYSFLAYLYNVSLSTNIIPDKWKKANVIMIPKPKKDPAIASSYRPISLLSPIAKLLEKAILKRIKNSIESPAHQHGFKPEHSTTTAVIQVTNDIIGGLNMKNPPERAIMACLDLRAAFDKVPTKKLCNDLMEAQGIEPKIKLWLGNYLHKRLIRTSHDNHWSKWHTLLGGVPQGSVISPNLFTFYLKDMPTQQDTMLISYADDMSIIARDKKIEKAAEKVQLHIDEIAKYLKERGMSISAEKSTVTVFSCDPKEHKTKPDIYWMDDPIPVINAPKLLGITLNTMTGTKDHVGNAIKSMQNKTRVIKSMAGTSWGNDRETMLYTTQALIKPTALYGAPAWTSLLSDTNLEKLEIAYRSALRACVGLTKDTPTDHIYQECRVLPLKEEYKLATQQMYLAAIKSNTHPCRDLKAKGQLERTSKPPRIPPLKLSDSEKLRLDNIPGDKTETQKKNHTKLVADFIRNAPNNRILNKPPPRVNYRDERTLPKETRCELARLRCGHSLLVEKYKARLEERQIKKCLNCGDEEGDVQHLLSCLQTPVPLEELWTSPLTVAAALGLPTKTPFDPGGGH”, the “soluble on expression in E. coli” value was “not soluble”.
The same measure for “MQSVLNLGKTTVTTCTFLRAASTSLQGKGPLKTNWKENVVYLYQFPRPANRQPNLSPYCLKIETFLRANRIKHEVVGTWLTLRQSPRGLLPFIELNGQQISDSQVIVWKLQKHFDLDDKLEGSDRGTARAVERMIDLSTNYALLVDKTVNNAHLLLARQVSNLPLPSFLTNYLAKGFSQTARKRVNGVLGKLDVAEQKELLRRDIRAIDDILGDKKFLFGDRITSVDCSVFGQIGAVFYLPYRQQISDLLEDDFPRVRAYCDRIRQHYYPEWRDD”: “not soluble”.
In the case of “MSLTPDAQVATAQRDDQALISEGKDLYDVACITCHGVNLQGVEDRGPSLVGVGEGAVYFQVHSGRMPILRNEAQAERKAPRYTEAQTLAIAAYVAANGGGPGLVYNEDGTLAMEELRGENYDGQITSADVARGGDLFRLNCASCHNFTGRGGALSSGKYAPNLDAANEQEIYQAMLTGPQNMPKFSDRQLSADEKKDIIAFIKSTKEGHHHHHH”, the “soluble on expression in E. coli” value is recorded as “soluble”.
As for “GKEHILVCISPSQGNEKVIRTAARMAEALKGKLTAVFVETPEYEESSIKEQESLRKNLRLAEQLGAQISSVYGEDISQQLAEYANVSQATKIILGRSSKRKSWLKPKLVDKLSEQIDSTDIYIIPDTQP”, the entry is “not soluble”; as for “MGSDKIHHHHHHMQLPISQYNELLQKKLEKLTALLHPFNAPDIQVFDSPTSHYRMRAEFRIWHEQDDFYHIMFDQATLQRYRVDEFPIASMLINRMMQTLLPLLKQQEVLHKKLFQIDYLSTLSNKIIVSLLYHKTLTEEWESAAKNLKDLLEKQDFDVQIIGRASKQKICFEQDYVDEVLPVNGRNYVYRQVENSFTQPNATVNCKMLEWAIDCTQNSEGDLLELYCGNGNFSIALAQNFRKVLATEIAKPSVAAAQFNIAENKVDNLQIIRMSAEEFTQAMNGVRAFNRLKGIDLKSYECNTIFVDPPRAGLDPDTVKLVQNYDRILYISCNPHTLCDNLVELSKTHRIEKAALFDQFPYTDHMESGLWLIRK”, “not soluble”; as for “MGSLVREWVGFQQFPAATQEKLIEFFGKLKQKYLIVKMIQGAIRNDIKTSGKPL”, “not soluble”.
The same measure for “MGSDKIHHHHHHMRLKITHRTEYRYDAPVQYLLQRLRLLPVSGQTQTVLSWALKVEGAREEVRFTDHYGNDTRLLSVEGDHDFITVEASGEVVTRDTSGVCGSHQGFAPLWLFAQETPLTAIGGGIRKLAEAVGTGTDIERLHRLMAMIGERVAYTPGSTKATTPAEEALALKTGVCQDHSHIFAAAARAMGFPSRYVSGYLMMDAVEQAASHAWAEAHVPGLGWVAFDPANGISPDERYVKVATGRDYRDASPVSGIRQGQAEERLAVTVTVEQ”: “not soluble”; for “MGSDKIHHHHHHMFYYNQYVRAQSLDEAYELYQKKPNFVLGGMLWLKMKNKTLGTAIDLCDLGLDQIDEDENEFRIGAYATLRQIETHEALNAYTHGAIAESVRHIVGVQFRNVATVGGSIWGRFGFSDVMTIFRALGAKVQLHKAGIMDLDEFAALPRTTRDVLVSVIVPKNAKGVVYLSQRNQSTDFPVLTCAVANRSGRYVAVIGASPYMAEPVWDEDGILDGIADAKTDGNAALTDNSETNAKIDKFAEYVAEHIRFGSNIRAGAEYREIICRVLTRRAVTQSLDICDDIKHEH”: “not soluble”.
As for “MGSDKIHHHHHHANNFGITYSLPKTSLVVDAEVTKVTCKAGPYYQYAEKYLGVKDAVTEDKIYFDLGKISLINRGLPDADNTYIVEFKQGTVAPYAYLTEDGLLCSINAEYTPVESELDAAKKNKGSQQKVTDTSVFSEELLMAGSTAKQAEVAAKQIYRIRESRLNILTGEADNLPPDGEAMKLVIQQLEEQEKALTNLFTGILTKETEHYEVSIIPHDNLDKEVLFRFSKQLGIVDADDLGGTPVYMNLKATERAPILDAKEAEKKDKSLKGIVYNVPGKASIEILMNKKTLYKGEAQITQFGTREGLAPVMFEDKKAPVKVLFYPETGAIKQIIQ”, the entry is “not soluble”.
For “MVMNAILKKTHFSTAEYLADLAVQALIDEVNLTPKPALVDRRGGGAHDDLNLELMEKSAYSLFPMFKAMAEAAEIHGEVNQALREDIGQLGRQGEQRMLQVTHGINTHRGAIWSIGLVLTATALTLYKQEPCLITEICKTAAEIALLEDRFIPKQQFSHGQMVRQKFGINGAKQQAQQGFPIILEFGLVQLQCSRALNTTETEARLNALLAMMAELSDTCVVHRAGLDGLNMMQSGAREVLQLGGCSTNEGQQRLEQLEQNLLRIRASAGGAADLLATLLFLDQAEQHNSSAPQGRRNQWKY”, the “soluble on expression in E. coli” value was “not soluble”.
“MGSDKIHHHHHHMLKIKTSNLRPGIKLGKDIYSYDSQLLLTSGSTITQEHLDSFARRNIEEVFILDESPRMKPERDFEDVYQDALEVVNSFMVGAMLGSPLDFQEIDKTVDLLREQAFDAIDLFRQMRLMKNKGEYLFTHSINVSLLCILIGRWLKCDRNTIRELGIAGLLHDLGKVFIENDILNKPGKLTDQEYEKIKKHTVLGYNFICQNPDMNLEVANAALMHHERVDGSGYPSGLKGQLNFYAAVVAVADVYDAITSAHSYADKRSPYSAAEILWQESFGKLDARITKVFYDKITNFYVGNKVLLSNKKEGIVIYVDPFQPTRPIVMVEDEFYNLALDRSITIRDIID”: the “soluble on expression in E. coli” value is “not soluble”.
With “EPDSVSIPITCCFNVINRKIPIQRLESYTRITNIQCPKEAVIFKTQRGKEVCADPKERWVRDSMKHLDQIFQNLKP”, the “soluble on expression in E. coli” value was “soluble”.
As for “MASSSATLSLCSTFSAHCNVNSRRSSTILCSLSKPSLNLAKPLTGFLSPSTASTSRTAFTVAPKFAESVVEAEPETTDIEAVVVSDVSEVTEEKAKREEIFAVIMVGGRQYIVFPGRYLYTQRLKDANVDDQIVLNKVLLVGTKTHTYIGKPVVTNATVHAVVESQGLNDKVVVFKYKPKKKYRRNIGHRQPNTRIRITGITGYEEYPASPNVAVGEVNLLEHHHHHH”, the entry is “not soluble”.

The values above are taken from the DeepSol protein solubility set.
